Measured values from patent publication US20240209093A1 (I MAB BIOPHARMA, published 2024).
Each block holds one binder with its values, some of them ahead of it.

Columns and labels:
[1] = target: T1, human PD-L1-his (human, UniProt Q9NZQ7 19-238); test: ELISA, plate coated with human His-PD-L1, detection goat anti-human IgG Fc HRP
T1 construct: also called hPD-L1-his; human His-PD-L1
Text: Binding properties of the humanized anti-PD-L1 antibody of the present application were first evaluated by ELISA assay.

[2] = target: T1, human PD-L1-his; test: ELISA, plate coated with human His-PD-L1, detection goat anti-human IgG Fc HRP [panel B]
Text: (§1) Binding of the anti-PD-L1/TIGIT bsAb molecules with human PD-L1 was further analyzed by ELISA.

[3] = target: T2, human PD-L1 on cells (human, UniProt Q9NZQ7 19-290); test: flow cytometry on Raji cells overexpressing human PD-L1, PE-anti-hu IgG
T2 construct: whole, on cells; also called Raji cells overexpressing human PD-L1; Raji-PD-L1 cells
T2 sequence (Q9NZQ7 19-290): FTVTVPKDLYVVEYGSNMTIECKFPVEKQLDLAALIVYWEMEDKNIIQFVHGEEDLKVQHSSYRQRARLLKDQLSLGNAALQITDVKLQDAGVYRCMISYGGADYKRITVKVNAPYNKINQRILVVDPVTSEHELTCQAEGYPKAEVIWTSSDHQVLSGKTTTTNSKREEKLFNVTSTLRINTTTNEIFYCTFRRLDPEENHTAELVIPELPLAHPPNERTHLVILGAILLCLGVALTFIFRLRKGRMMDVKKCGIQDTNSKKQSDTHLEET
Description: Binding capability of the anti-PD-L1 antibody of the present application was further evaluated by using Raji cells overexpressing human PD-L1. Briefly, 50 μl Raji cells overexpressing human PD-L1 were seeded into 96 well plate at a concentration of 2*10⁵ cells/well. […] Then the cells were washed twice by FACS buffer and supplemented with 100 μl PE-anti-hu IgG, followed by incubation on ice for 1 hour. After incubation, the cells in each well were collected and resuspended with 65 μl FACS buffer for analysis by flow cytometry.

[4] = target: T2, human PD-L1 on cells; test: flow cytometry on Raji cells overexpressing human PD-L1, PE-anti-hu IgG [panel C]
Description: Furthermore, binding capability of the anti-PD-L1/TIGIT bsAbs of the present application with cells expressing PD-L1 was analyzed by using Raji-PD-L1 cells. Briefly, 50 μl Raji cells overexpressing human PD-L1 were seeded into 96 well plate with 2*10⁵ cells/well.

[5] = target: T3, His-tagged human TIGIT-ECD protein (human, UniProt Q495A1 22-141); test: ELISA on His-tagged human TIGIT
T3 construct: extracellular domain; also called hTIGIT-his
T3 sequence (looked up): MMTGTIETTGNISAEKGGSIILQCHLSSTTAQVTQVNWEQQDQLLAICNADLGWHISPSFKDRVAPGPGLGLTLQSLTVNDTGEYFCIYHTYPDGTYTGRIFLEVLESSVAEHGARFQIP

[6] = target: T4, Tag1-CD47 (UniProt Q08722 19-139); test: HTRF CD47/SIRPα binding assay (Cisbio): blocking of Tag2-SIRPa binding to Tag1-CD47; axis numbers -3 to 3 read as log10 of nM
T4 construct: Bought kit reagent
T4 sequence (Q08722 19-139 limits assumed): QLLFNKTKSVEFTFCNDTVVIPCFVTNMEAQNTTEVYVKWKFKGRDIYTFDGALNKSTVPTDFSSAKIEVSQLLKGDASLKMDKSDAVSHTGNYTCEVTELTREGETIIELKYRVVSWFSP
Text: Fluorescence data were read on a PerkinElmer Envision plate reader using laser as light source.

[7] = target: T2, human PD-L1 on cells; test: flow cytometry on RKO cells, which carry both human CD47 and human PD-L1; APC-labelled secondary antibody; signal not resolved between the two arms
Description: (§2) RKO cells are human colon carcinoma cell lines that express endogenous level of human CD47 and human PD-L1 on the surface. RKO cells were incubated with serial diluted anti-CD47/PD-L1 bispecific antibodies, parental CD47 or PD-L1 monospecific antibodies at 4° C. for 30 minutes. Then cells were washed with FACS buffer three times, followed by incubation with APC-labeled secondary antibody at 4° C. for 30 minutes. Then cells were washed with FACS buffer for three times. Binding was measured by flow cytometry.

[8] = target: T2, human PD-L1 on cells; test: flow cytometry on RKO cells (endogenous CD47 and PD-L1), APC-labelled secondary antibody
Description: as §2

[9] = target: T1, human PD-L1-his; test: ELISA, plate coated with human His-PD-L1, detection goat anti-human IgG Fc HRP [panel A]
Text: as §1

[10] = target: T1, human PD-L1-his; test: SPR, Biacore T200, antibody captured on protein A chip, hPD-L1-his 6.25-100 nM as analyte
Description: The binding affinity of the PD-L1/TIGIT bsAb to recombinant human his-tagged PD-L1 protein was tested by BIACORE®. […] A series of dilutions of human PD-L1 protein (6.25 nM-100 nM) were injected over captured antibody at a flow rate of 10 μL/min. The antigen was allowed to associate for 180 s and dissociate for 1200 s. All the experiments were carried out on a Biacore T200. Data analysis was carried out using Biacore T200 evaluation software.

[11] = target: T1, human PD-L1-his; test: SPR, Biacore, full kinetics, antigen 100-1.5625 nM

T1 sequence (Q9NZQ7 19-238 limits assumed): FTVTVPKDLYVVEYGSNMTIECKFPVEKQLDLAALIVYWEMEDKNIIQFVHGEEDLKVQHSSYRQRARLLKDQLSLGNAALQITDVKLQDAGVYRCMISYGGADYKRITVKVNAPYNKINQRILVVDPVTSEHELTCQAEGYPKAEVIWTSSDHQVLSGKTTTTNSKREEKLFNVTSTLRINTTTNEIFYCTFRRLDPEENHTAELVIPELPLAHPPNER

B3: 13H3-L-93VH6-IgG1 (bispecific antibody)
heavy: not shown
light: DIVMTQSPDSLAVSLGERATINCKSSQSVLYAGNNRNYLAWYQQKPGQPPKLLINQASTRASGVPDRFSGSGSGTEFTLIISSLQAEDVAIYYCQQYYTPPLAFGGGTKLEIKGGGGSGGGGSGGGGSGGGGSEVQLVESGGGLVQPGGSLRLSCAASGFTFTFRHYVMGWFRQAPGKEREFVAAISWSGSGSYYADSVKGRFTISRDNSKNTVYLQMNSLRAEDTAVYYCAADMTTRMSQASREYDYWGQGTLVTVSSRTVAAPSVFIFPPSDEQLKSGTASVVCLLNNFYPREAKVQWKVDNALQSGNSQESVTEQDSKDSTYSLSSTLTLSKADYEKHKVYACEVTHQGLSSPVTKSFNRGEC
notes: Symmetric 'two to two' anti-CD47/PD-L1 bispecific
IC50 (read off the curve) [6]: ~1 nM
binding result [7]: binds

B4: 93-VH-6 (VHH)
VHH: EVQLVESGGGLVQPGGSLRLSCAASGFTFTFRHYVMGWFRQAPGKEREFVAAISWSGSGSYYADSVKGRFTISRDNSKNTVYLQMNSLRAEDTAVYYCAADMTTRMSQASREYDYWGQGTLVTVSS
notes: Humanized anti-PD-L1 single domain antibody; the assays imply a human Fc part that is not described; also called PD-L1 Ab (93-VH6); 93-VH6 sdAb
EC50 (read off the curve) [8]: ~0.3 nM
EC50 (read off the curve) [1]: ~0.02 nM
EC50 (read off the curve) [9]: ~1 nM
EC50 (read off the curve) [3]: ~0.4 nM
Kd [10]: 3.64 nM
koff [10]: 0.000128 s⁻¹
kon [10]: 35300 M⁻¹ s⁻¹
Kd [11]: 2.06 nM
koff [11]: 0.000197 s⁻¹
kon [11]: 95900 M⁻¹ s⁻¹

Next, values leading:

EC50 (read off the curve) [1]: ~0.009 nM
EC50 (read off the curve) [2]: ~0.009 nM
EC50 (read off the curve) [3]: ~0.3 nM
EC50 (read off the curve) [4]: ~0.3 nM
B1: 112-VH47 (VHH)
VHH: EVQLVESGGGLVQPGGSLRLSCAASGFTFSSGTQFSDSKIDWYRQAPGKGLVWVAGIFSTGSTIYEDSVKGRFTISRDNAKNTGYLQMNSLRAEDTAVYYCRVIGRGILAWGQGTLVTVSS
notes: Humanized anti-PD-L1 single domain antibody

EC50 (read off the curve) [2]: ~0.02 nM
EC50 (read off the curve) [5]: ~0.01 nM
EC50 (read off the curve) [4]: ~0.4 nM
B2: TIGIT-Fc-112-VH47 (bispecific antibody, human IgG1, kappa)
heavy: not shown
light: DIVMTQSPSSLSASVGDRVTITCKASQDVDTAVAWYQQKPGKAPKLLIYWASARHTGVPSRFSGSGSGTDFTFTISSLQPEDIATYYCQQYSNYPLTFGQGTKLEIKRTVAAPSVFIFPPSDEQLKSGTASVVCLLNNFYPREAKVQWKVDNALQSGNSQESVTEQDSKDSTYSLSSTLTLSKADYEKHKVYACEVTHQGLSSPVTKSFNRGEC
